Assay [1] deals with T1, ubiquitin (whether His-tagged or not is not told for the experiment) (UniProt P0CG48 1-76).
T1 construct: ubiquitin, the 76-residue cut product (residues up to Gly76 are named); The methods list His-tagged and non His-tagged ubiquitin; It may carry the C-terminal His tag of m6; 15N- or 13C,15N-labelled in some NMR experiments; source: purchased from Spectra Isotopes or obtained as described in [12]; [18]
The assay is described as follows: other fluorescence titration + ITC; 25 °C; ubiquitin stock titrated into the SH3 domain; ITC in 20 mM cacodylate, pH 6.0, about 50 µM SH3 in the cell and about 800 µM ubiquitin; intrinsic tryptophan fluorescence (excitation 298 nm), apparent affinities; model of a single set of identical sites. The conditions noted are these: both partners purified.

Assay [2] addresses T1, ubiquitin (whether His-tagged or not is …). The assay is described as follows: NMR titration; unlabelled SH3 domain titrated into 0.25 mM 15N-ubiquitin; 1H-15N HSQC chemical shift perturbation; 25 °C; 50 mM NaPi, 1 mM DTT, pH 6.0. The note with it: both partners purified.

Changes are numbered by the printed parent chain. Names and notes keep the numbering of the source.

The source of these data is article PMC3770644 (PLoS ONE, 2013).

B1: CD2AP F324Y SH3-C (domain or fragment)
chain: AKEYCRTLFPYTGTNEDELTFREGEIIHLISKETGEAGWWKGELNGKEGVFPDNYAVQIS
notes: CD2AP third SH3 domain (SH3-C) with F324Y; Site-directed mutagenesis (QuikChange) of the WT construct m3; also called SH3-C F324Y mutant; F324Y CD2AP SH3-C; source: E. coli BL21/DE3, purified like the WT CD2AP SH3-C
Take B1: the Kd in assay [1] was found to be 24 ± 3 µM.

B2: CD2AP SH3-C T283A mutant (domain or fragment)
chain: B1 chain with T14A, Y55F
notes: CD2AP third SH3 domain (SH3-C) with T283A (RT loop); Mutant of m3; source: purchased from Topgene and expressed as the WT domains; purified
In the case of B2, in assay [2], the binding result is on record as “binds”.

B3: CIN85 F322Y SH3-C (domain or fragment, UniProt Q96B97 270-328, looked up)
chain: DYCKVIFPYEAQNDDELTIKEGDIVTLINKDCIDVGWWEGELNGRRGVFPDNYVKLLPP
notes: CIN85 third SH3 domain (SH3-C) with F322Y; limits as the WT construct CIN85-SH3C(270-328)His6; Site-directed mutagenesis (QuikChange) of the WT construct m4; also called CIN85 SH3-C F322Y mutant; CIN85 F322Y SH3-C mutant; source: E. coli BL21/DE3, purified like the WT CIN85 SH3-C
Regarding B3, the binding result in assay [2] is reported as “binds”.
